Broadly, the EC50 is the concentration giving half of the maximal effect. The low end stands for higher potency in that assay, the high end for lower potency in that assay. The Kd is the constant that tells how readily two partners part at equilibrium. Low values mean a tighter complex, high ones a looser complex. The term koff denotes a measure of how fast the partners let go of each other. Lower therefore signals a long-lived complex. As usually defined, the kon is the second-order rate constant of association. A high value points to fast association.

Here are results for 6 molecules from patent US20110038869A1 (Genmab, published 2011).

In assay [1] the target is T1, full length CD32b2 on transfected IIA1.6 cells (human, UniProt P31994-2 43-291).
T1 construct: whole, on cells; also called IIA1.6-CD32b2
T1 sequence (looked up): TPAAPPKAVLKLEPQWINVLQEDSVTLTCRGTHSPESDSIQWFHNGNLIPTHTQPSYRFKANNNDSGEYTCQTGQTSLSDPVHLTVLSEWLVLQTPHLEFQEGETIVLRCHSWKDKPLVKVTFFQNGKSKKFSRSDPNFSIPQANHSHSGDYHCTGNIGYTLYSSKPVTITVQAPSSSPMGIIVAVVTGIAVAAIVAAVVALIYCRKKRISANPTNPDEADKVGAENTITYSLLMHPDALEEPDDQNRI
The assay can be described thus: flow cytometry on IIA1.6-CD32b2 cells. The method, then:
(§1) After harvesting and counting, IIA1.6 cells stably transfected with full length CD32a and CD32b (van den Herik-Oudijk et al., 1994), control IIA1.6 cells and Daudi-luc cells were resuspended in PBS (1×10⁶ cells/ml). Cells were put in 96-well V-bottom plates (100 μl/well) and washed twice with FACS buffer (PBS supplemented with 0.1% BSA and 0.02% Na-azide). Thereafter, 50 μl of serially diluted HuMab in FACS buffer was added to the cells and incubated for 30 minutes at 4° C. After washing three times with FACS buffer, 50 μl of phycoerythrin (PE)-conjugated rabbit anti-human IgG (Jackson ImmunoResearch Europe), diluted 1:200 in FACS buffer, was added. After 30 minutes at 4° C. (in the dark), cells were washed three times, and specific binding of the HuMabs was detected by flow cytometry on a FACSCalibur (BD Biosciences). […] Binding curves were analyzed using non-linear regression (sigmoidal dose-response with variable slope) using GraphPad Prism V4.03 software (GraphPad Software, San Diego, Calif., USA).
To analyze binding of anti-CD32b HuMabs to CD32b1 and CD32b2, IIA1.6 cells transfected with full length CD32b1 or CD32b2 (van den Herik-Oudijk et al., 1994) were prepared as described supra. The assay was performed as described supra. Flow cytometry was performed on a FACS Canto II (BD Biosciences).
In general terms: In flow cytometry, cells or beads pass a laser one at a time.

In assay [2] the target is T2, biotinylated CD32bECDHis (human, UniProt P31994 43-223, limits assumed, biotinylated (sites not given)).
T2 sequence (looked up): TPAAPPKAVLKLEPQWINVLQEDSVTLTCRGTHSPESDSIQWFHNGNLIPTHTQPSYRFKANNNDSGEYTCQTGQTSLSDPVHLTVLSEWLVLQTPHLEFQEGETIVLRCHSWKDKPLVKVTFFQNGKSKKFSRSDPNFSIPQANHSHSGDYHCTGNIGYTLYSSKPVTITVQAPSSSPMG
The assay can be described thus: competition ELISA, competitor 026. The method, then:
ELISA wells were coated overnight at 4° C. with anti-CD32b HuMabs serially diluted in PBS. The ELISA wells were washed with PBS, blocked for one hour at room temperature with 2% (v/v) chicken serum (Gibco, Paisley, Scotland) in PBS and washed again with PBS. Subsequently, the immobilized antibodies were incubated with biotinylated CD32bECDHis serially diluted in PBSTC. After washing with PBS/Tween, bound biotinylated CD32bECDHis was incubated with Streptavidin-poly-HRP (Sanquin, Amsterdam, The Netherlands) for 1 hr at RT an the reaction was developed as described supra.
To this end, ELISA wells coated with anti-CD32b HuMabs were incubated in the presence of an excess of CD32b-specific antibody and the predetermined concentration of biotinylated CD32bECDHis in fluid phase. The reaction was developed as described.
Background: In an ELISA, binding on a coated surface is turned into a signal by an enzyme label.

Assay [3] has as its target T3, CD32bECDHis (human, UniProt P31994 43-223, limits assumed).
T3 construct: Produced in HEK-293F cells; also called extracellular domain of CD32b with C-terminal His tag; soluble CD32b
T3 sequence (looked up): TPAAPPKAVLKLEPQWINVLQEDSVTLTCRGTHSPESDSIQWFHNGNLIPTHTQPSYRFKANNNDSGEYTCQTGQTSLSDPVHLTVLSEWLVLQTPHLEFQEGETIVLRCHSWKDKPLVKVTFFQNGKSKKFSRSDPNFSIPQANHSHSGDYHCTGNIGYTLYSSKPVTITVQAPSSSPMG
The assay can be described thus: SPR BIAcore 3000, antibody immobilized, CD32bECDHis analyte. Here is the method: Antibody binding to CD32a and CD32b was analyzed by surface plasmon resonance in a BIAcore 3000 (GE Healthcare). CD32aECDHis and CD32bECDHis derived from HEK293 cells were used for the analysis. HuMab antibodies were immobilized on the CM-5 sensor chip according to the procedure recommended by the manufacturer. Briefly, after surface activation by EDC and NHS HuMab antibody was injected over the activated CM-5 surface in 10 mM sodium-acetate, pH ranging from 4.0 to 5.5 at 5 μl/min. followed by 1 M Ethanolamine for deactivation. Concentration series of CD32bECDHis in HBS-EP buffer were injected over the immobilized antibodies at a flow rate of 30 μl/min for 180 sec. Regeneration of the HuMab surface was performed by injection of 10 mM Glycine-HCl pH 2.0 or 10 mM sodium acetate pH 3.0. […] Kinetic analysis is performed using double reference subtraction and model 1:1 (langmuir) binding analysis. Specificity was studied by injecting CD32aECDHis at a concentration of […] over immobilized HuMab and isotype control antibodies under the same conditions as for the CD32b measurements.
(Surface plasmon resonance follows binding to a sensor surface in real time, without labels.)

Assay [4] deals with T4, full length CD32a on stably transfected IIA1.6 cells (human, UniProt P12318 34-317).
T4 construct: whole, on cells; also called IIA1.6-CD32a; CD32a-expressing IIA1.6 cells
T4 sequence (looked up): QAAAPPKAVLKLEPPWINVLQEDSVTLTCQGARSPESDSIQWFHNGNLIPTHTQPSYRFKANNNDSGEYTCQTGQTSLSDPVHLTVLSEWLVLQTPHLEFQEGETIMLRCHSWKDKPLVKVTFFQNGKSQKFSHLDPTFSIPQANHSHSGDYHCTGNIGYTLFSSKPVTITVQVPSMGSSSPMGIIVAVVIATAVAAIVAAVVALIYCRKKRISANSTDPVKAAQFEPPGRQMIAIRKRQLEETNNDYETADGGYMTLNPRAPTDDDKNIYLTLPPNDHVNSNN
The assay is described as follows: flow cytometry on IIA1.6 cells expressing full length CD32a, PE anti-human IgG, MFI. Here is the method: as §1

Assay [5] deals with T4, full length CD32a on stably transfected …. The assay can be described thus: flow cytometry on IIA1.6-CD32a cells. The method, then:
as §1

B1: Antibody 024 (antibody, V domains shown)
VH: QVQLVQSGAEVKKPGASVKVSCKASGYTFTSYGLSWVRQAPGQGLEWMGWISPYNGNTHYAQKLQGRVTMTTDTSTSTAYMDLRSLRSDDTAVYYCARDSAAHGMDVWGQGTTVTVSS
VL: DIQMTQSPSSLSASVGDRVTITCRASQGISSWLAWYQQKPEKAPKSLIYAASSLQSGVPSRFSGSRSGTDFTLTISSLQPEDFATYYCQQYNSYPYTFGQGTKLEIKR
notes: also called HuMab 024
In turn, B1 came in with an EC50 in assay [1] of 1.96 nM. Also, the “% residual binding” value in assay [2] is 56%. Moreover, in assay [3], the Kd was 0.9 nM, the koff turned out to be 0.00126 s⁻¹ and the kon is 1.44e+06 M⁻¹ s⁻¹. Also, the binding result in assay [4] was “no binding (tested: about 7e-8 M)”.

B2: Antibody 020 (antibody, V domains shown)
VH: QVQLVQSGGEVKKPGASVKVSCKTSGYTFTSYGISWVRQAPGQGLEWMGWISAYNGNTKYAQKLQGRLTMTTDTSTTTAYMELRSLRSDDTAVYYCARDSAAHGMDVWGQGTTVTVSS
VL: DIQMTQSPSSLSASVGDRVTITCRASQGISSWLAWYQQKPEKAPKSLIYAASSLQSGVPSRFRGSGSGTDFTLTISSLQPEDFATYYCQQYNSYPYTFGQGTKLEIKR
notes: also called HuMab 020
For B2, the “% residual binding” value in assay [2] came to 28%. In assay [3], this molecule gave a Kd of 2.4 nM, a koff of 0.00363 s⁻¹ and a kon of 1.54e+06 M⁻¹ s⁻¹. Besides, the binding result in assay [4] is on record as “no binding (tested: about 7e-8 M)”.

B3: Antibody 028 (antibody, V domains shown)
VH: QVQVVQSGAEVKKPGASVKVSCKTSGYTFTSYGISWVRQAPGQGLEWMGWISAYNGNTKYAQKLQGRLTMTTDTSTTTAYMELRSLRSDDTAVYYCARDSAAHGMDVWGQGTTVSVSS
VL: DIQMTQSPSSLSASVGDRVTITCRASQGISSWLAWYQQKPEKAPKSLIYAASSLQSGVPSRFSGSRSGTDFTLTISSLQPEDFATYYCQQYNSYPYTFGQGTKLEIKR
notes: List 1 gives no VL for antibody 028; The VL is therefore uncertain; also called HuMab 028
In turn, B3 yielded an EC50 in assay [1] of 2.18 nM. In assay [2], the “% residual binding” value is 32%. In assay [3], this molecule came in with an equilibrium dissociation constant (Kd) of 1.3 nM, a koff of 0.00199 s⁻¹ and a kon of 1.58e+06 M⁻¹ s⁻¹. The binding result in assay [4] is “no binding (tested: about 7e-8 M)”.

B4: Antibody 026 (antibody, V domains shown)
VH: QVQLVQSGAEVKKPGASVKVSCKASGYTFTSYGLSWVRQAPGQGLEWMGWISAYNGNTNYAQKLQGRVTMTTDTSTSTAYMDLRSLRSDDTAVYYCARDSAAHGMDVWGQGTTVTVSS
VL: DIQMTQSPSSLSASVGDRVTITCRASQGISSWLAWYQQKPEKAPKSLIYAASSLQSGVPSRFSGSRSGTDFTLTISSLQPEDFATYYCQQYNSYPYTFGQGTKLEIKR
notes: Human antibody; also called HuMab 026
B4: the “% residual binding” value in assay [2] was 4%. For the same molecule, in assay [3], binding was characterised by a dissociation constant (Kd) of 1.3 nM, the koff is 0.00179 s⁻¹ and the kon was 1.4e+06 M⁻¹ s⁻¹. In assay [4], the binding result is “no binding (tested: about 7e-8 M)”.

B5: Antibody 022 (antibody, V domains shown)
VH: QVQLVQSGAEVKKPGASVKVSCKASGYTFTSYGLSWVRQAPGQGLEWMGWISPYNGNTHYAQKLQGRVTMTTDTSTSTADMDLRSLRSDDTAVYYCARASAAHGMDVWGQGTTVTVSS
VL: DIQMTQSPSSLSASVGDRVTITCRASQGISSWLAWYQQKPEKAPKSLIYAASSLQSGVPSRFSGSRSGTDFTLTISSLQPEDFATYYCQQYNSYPYTFGQGTKLEIKR
notes: also called HuMab 022
As for B5, the “% residual binding” value in assay [2] came out at 42%. Also, in assay [3], the affinity, expressed as Kd, was 0.7 nM; the koff was 0.00103 s⁻¹; the kon came out at 1.48e+06 M⁻¹ s⁻¹. Further, in assay [4], the binding result was “no binding (tested: about 7e-8 M)”.

B6: Antibody 038 (antibody, human IgG1, V domains shown)
VH: QVQLVESGGGVVQPGRSLRLSCAASGFTFSTYGMHWVRQAPGKGLEWVAVISHDGSDKYYADSVKGRFTISRDNSKNTLYLQMNSLRAEDTAVYYCARDQSIIETFDYWGQGTLVTVSS
VL: EIVLTQSPATLSLSPGERATLSCRASQSVSSYLAWYQQKPGQAPRLLIYDASNRATGIPARFSGSGSGTDFTLTISSLEPEDFAVYYCQQRSNWGFTFGPGTKVDIKR
notes: Human antibody; also called HuMab 038
The molecule B6 showed an EC50 in assay [5] of 3.48 nM. This molecule also had an EC50 in assay [1] of 0.27 nM. The “% residual binding” value in assay [2] came out at 308%. In assay [3], this molecule had a Kd of 1 nM, a koff of 0.00156 s⁻¹ and a kon of 1.54e+06 M⁻¹ s⁻¹.
